Target: activated Factor VIII (FVIIIa) (UniProt P00451)
UniProt P00451, sequence (P00451 other isoform, or with tags, fused parts or gaps): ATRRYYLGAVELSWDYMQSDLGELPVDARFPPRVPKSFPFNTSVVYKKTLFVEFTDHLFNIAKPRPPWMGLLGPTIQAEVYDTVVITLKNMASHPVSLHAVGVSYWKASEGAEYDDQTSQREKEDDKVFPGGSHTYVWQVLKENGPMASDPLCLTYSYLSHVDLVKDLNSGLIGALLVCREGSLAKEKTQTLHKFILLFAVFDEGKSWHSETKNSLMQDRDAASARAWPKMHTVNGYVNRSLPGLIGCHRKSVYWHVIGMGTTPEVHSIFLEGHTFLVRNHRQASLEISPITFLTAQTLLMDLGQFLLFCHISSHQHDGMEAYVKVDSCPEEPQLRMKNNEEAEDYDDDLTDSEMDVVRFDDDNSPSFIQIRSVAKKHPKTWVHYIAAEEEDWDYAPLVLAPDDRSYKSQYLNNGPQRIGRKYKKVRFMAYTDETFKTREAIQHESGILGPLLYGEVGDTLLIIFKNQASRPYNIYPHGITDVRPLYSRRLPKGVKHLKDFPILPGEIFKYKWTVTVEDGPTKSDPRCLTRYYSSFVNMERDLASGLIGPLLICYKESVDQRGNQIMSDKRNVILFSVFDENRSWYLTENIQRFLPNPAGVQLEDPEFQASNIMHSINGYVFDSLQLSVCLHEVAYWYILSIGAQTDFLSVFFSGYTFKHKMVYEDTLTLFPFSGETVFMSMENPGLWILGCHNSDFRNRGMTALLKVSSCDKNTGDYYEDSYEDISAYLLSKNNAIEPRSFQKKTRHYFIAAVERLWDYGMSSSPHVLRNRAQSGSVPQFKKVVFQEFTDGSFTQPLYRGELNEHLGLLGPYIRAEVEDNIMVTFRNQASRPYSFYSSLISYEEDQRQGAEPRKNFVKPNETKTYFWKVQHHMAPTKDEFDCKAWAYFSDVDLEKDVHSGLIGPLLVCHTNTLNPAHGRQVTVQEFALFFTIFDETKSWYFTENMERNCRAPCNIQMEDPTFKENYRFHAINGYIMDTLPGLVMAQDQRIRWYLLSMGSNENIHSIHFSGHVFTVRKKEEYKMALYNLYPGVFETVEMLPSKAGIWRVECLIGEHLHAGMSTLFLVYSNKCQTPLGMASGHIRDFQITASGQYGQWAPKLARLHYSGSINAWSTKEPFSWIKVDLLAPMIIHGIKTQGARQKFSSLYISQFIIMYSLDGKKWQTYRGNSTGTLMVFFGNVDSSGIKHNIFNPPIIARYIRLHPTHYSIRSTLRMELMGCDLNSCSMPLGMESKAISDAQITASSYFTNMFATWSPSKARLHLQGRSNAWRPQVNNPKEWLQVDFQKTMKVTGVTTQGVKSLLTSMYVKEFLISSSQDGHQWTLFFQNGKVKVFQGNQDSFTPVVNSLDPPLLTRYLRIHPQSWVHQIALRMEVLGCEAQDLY

Substance: Factor IX G93S (hemophilia B-causing FIX variant)
- FIX activity without the FVIIIa-mimetic: only 0.1% and 2% activity without the FVIIIa-mimetic
- FIX activity, one-stage aPTT clotting assay with and without 300 nM emicizumab: I397T, E387K, R338P, and G93S all substantially increase their activity with the addition of emicizumab

From patent US20260258152
